Reference: patent US20230035659A1, “Compositions and Methods for TTR Gene Editing and Treating ATTR Amyloidosis Comprising a Corticosteroid or Use Thereof” (Intellia Therapeutics, Inc., priority 2019, published 2023)
Strand notation (5' to 3'): a small letter for the sugar, then the base; units joined by * are phosphorothioate-linked, units joined directly phosphodiester-linked; [ ] holds rarer units or linkages, { } end groups; capitals alone tell only the bases. m = 2'-O-methyl; r = 2'-OH (RNA)

Tested on: TTR
Assay: TTR editing in primary cyno hepatocytes treated with LNP formulated Spy Cas9 mRNA (SEQ ID NO: 2) and sgRNAs, 12.5 ng mRNA
Assay type: cell-based, cynomolgus monkey
Details: LNP formulated Spy Cas9 mRNA (SEQ ID NO: 2) and cyno matched sgRNA, lysed 72 hours post treatment
Method: Primary liver hepatocytes. Primary human liver hepatocytes (PHH) and primary cynomolgus liver hepatocytes (PCH) (Gibco) were cultured per the manufacturer's protocol (Invitrogen, protocol 11.28.2012). In brief, the cells were thawed and resuspended in hepatocyte thawing medium with supplements (Gibco, Cat. CM7000) followed by centrifugation at 100 g for 10 minutes for human and 80 g for 4 minutes for cyno. The supernatant was discarded and the pelleted cells resuspended in hepatocyte plating medium plus supplement pack (Invitrogen, Cat. A1217601 and CM3000). Cells were counted and plated on Bio-coat collagen I coated 96-well plates (ThermoFisher, Cat. 877272) at a density of 33,000 cells/well for human or 60,000 cells/well for cyno (or 65,000 cells/well when assaying effects on TTR protein, described further below). Plated cells were allowed to settle and adhere for 6 or 24 hours in a tissue culture incubator at 37° C. and 5% CO2 atmosphere. After incubation cells were checked for monolayer formation and media was replaced with hepatocyte culture medium with serum-free supplement pack (Invitrogen, Cat. A1217601 and CM4000).
In general, the lipid nanoparticle components were dissolved in 100% ethanol with the lipid component of various molar ratios. The RNA cargos were dissolved in 25 mM citrate, 100 mM NaCl, pH 5.0, resulting in a concentration of RNA cargo of approximately 0.45 mg/mL. The LNPs were formulated with a lipid amine to RNA phosphate (N:P) molar ratio of about 4.5 or about 6, with the ratio of mRNA to gRNA at 1:1 by weight.
The LNPs were formed by microfluidic mixing of the lipid and RNA solutions using a Precision Nanosystems NanoAssemblr™ Benchtop Instrument, according to the manufacturer's protocol. A 2:1 ratio of aqueous to organic solvent was maintained during mixing using differential flow rates. […]
Additional PCR was performed per the manufacturer's protocols (Illumina) to add chemistry for sequencing. […] The reads were aligned to a reference genome (e.g., the human reference genome (hg38), the cynomologus reference genome (mf5), the rat reference genome (rn6), or the mouse reference genome (mm10)) after eliminating those having low quality scores. The resulting files containing the reads were mapped to the reference genome (BAM files), where reads that overlapped the target region of interest were selected and the number of wild type reads versus the number of reads which contain an insertion, substitution, or deletion was calculated.
The editing percentage (e.g., the “editing efficiency” or “percent editing” or “indel frequency”) is defined as the total number of sequence reads with insertions/deletions (“indels”) or substitutions over the total number of sequence reads, including wild type. […]

B1: G000502: TTR Cyno specific sgRNA modified sequence, SEQ ID NO: 114; guide sequence of CR000689; cross homologous between mouse and cyno (nucleic acid)
guide: mA*mC*mA*rCrArArArUrArCrCrArGrUrCrCrArGrCrGrGrUrUrUrUrArGrAmGmCmUmAmGmAmAmAmUmAmGmCrArArGrUrUrArArArArUrArArGrGrCrUrArGrUrCrCrGrUrUrArUrCrAmAmCmUmUmGmAmAmAmAmAmGmUmGmGmCmAmCmCmGmAmGmUmCmGmGmUmGmCmU*mU*mU*mU
  12.5 ng mRNA, 3.9 nM sgRNA, Avg % Edit: 80.70%
